{"source": "patent US20050170502A1", "about": "“Methods for maintaining hepatocytes in culture and for differentiating embryonic stem cells along a hepatocyte lineage” (REGENTS OF THE UNIVERSITY OF CALIFORNIA, priority 2003, published 2005)", "molecules": {"B1": {"name": "OnM: oncostatin M (protein, UniProt P13725 26-221, looked up)", "Oncostatin-M": "AAIGSCSKEYRVLLGQLQKQTDLMQDTSRLLDPYIRIQGLDVPKLREHCRERPGAFPSEETLRGLGRRGFLQTLNATLGCVLHRLADLEQRLPKAQDLERSGLNIEDLEKLQMARPNILGLRNNIYCMAQLLDNSDTAEPTKAGRGASQPPTPTPASDAFQRKLEGCRFLHGYHRFMHSVGRVFSKWGESPNRSRR"}}, "tested_on": "mouse ES cells (ES-D3)", "test": "Hepatocyte-specific gene expression in differentiated mouse ES cells, real-time quantitative RT-PCR", "settings": "mouse ES cells, IMDM, collagen type I, day 33, FIG. 2A", "protocol": "Mouse ES cell line ES-D3 and mouse STO fibroblasts were obtained from the American Type Culture Collection, Manassas, Va. ES cells were expanded on STO fibroblast feeder layers in Dulbecco's modified Eagle's medium (DMEM) (unless specified, cell culture supplies were from Invitrogen, Carlsbad, Calif.) containing 15% fetal bovine serum (FBS), 1 mM L-glutamine, 60 μM non-essential amino acid solution, 0.1 mM 2-mercaptoethanol, 10 mM HEPES (Sigma-Aldrich, Saint Louis, Mo.), 1400 U/ml leukemia inhibitory factor (LIF) (Chemicon International, Temecula, Calif.), and penicillin/streptomycin at standard concentrations. To prepare feeder layers, STO fibroblasts were cultured until confluent and treated with 10 μg/ml mitomycin C (Sigma-Aldrich) for 4 hours. […]\nTotal RNA was extracted with RNeasy Mini Kit (Qiagen, Valencia, Calif.). Real time quantitative RT-PCR was employed for the determination of gene expression as described in detail previously by our group (Wege, H. et al., Gastroenterology 124:432-444 (2003)). […] Relative mouse or human gene expression analysis (ΔΔCT) was performed by real-time quantitative PCR with the ABI Prism 7700 Sequence Detection System and SYBR PCR Green Master Mix or TaqMan PCR Master Mix (Applied Biosystems, Foster City, Calif.). […] Normalized expression of hepatocyte-specific genes was compared to levels detected in primary adult mouse or human hepatocytes.", "data": [{"molecule": "B1", "values": [{"measurement": "albumin gene expression (effect of individual growth and differentiation factors)", "value": "only minor positive or even negative effects"}]}]}
